Laboratory results taken from patent US20160039933A1 (OXFORD BIOTHERAPEUTICS, published 2016).

How the values were obtained:
[1] = biological target: T1, Cadherin-17 protein (92 kDa) in lysates of colorectal cancer cell lines (human, UniProt Q12864 23-832); assay: Western blot of colorectal cancer cell line lysates, antibody diluted 1:500
T1 construct: Same natural protein as m15, here denatured on a Western blot (band at 92 kDa); also called CDH17
T1 sequence (looked up): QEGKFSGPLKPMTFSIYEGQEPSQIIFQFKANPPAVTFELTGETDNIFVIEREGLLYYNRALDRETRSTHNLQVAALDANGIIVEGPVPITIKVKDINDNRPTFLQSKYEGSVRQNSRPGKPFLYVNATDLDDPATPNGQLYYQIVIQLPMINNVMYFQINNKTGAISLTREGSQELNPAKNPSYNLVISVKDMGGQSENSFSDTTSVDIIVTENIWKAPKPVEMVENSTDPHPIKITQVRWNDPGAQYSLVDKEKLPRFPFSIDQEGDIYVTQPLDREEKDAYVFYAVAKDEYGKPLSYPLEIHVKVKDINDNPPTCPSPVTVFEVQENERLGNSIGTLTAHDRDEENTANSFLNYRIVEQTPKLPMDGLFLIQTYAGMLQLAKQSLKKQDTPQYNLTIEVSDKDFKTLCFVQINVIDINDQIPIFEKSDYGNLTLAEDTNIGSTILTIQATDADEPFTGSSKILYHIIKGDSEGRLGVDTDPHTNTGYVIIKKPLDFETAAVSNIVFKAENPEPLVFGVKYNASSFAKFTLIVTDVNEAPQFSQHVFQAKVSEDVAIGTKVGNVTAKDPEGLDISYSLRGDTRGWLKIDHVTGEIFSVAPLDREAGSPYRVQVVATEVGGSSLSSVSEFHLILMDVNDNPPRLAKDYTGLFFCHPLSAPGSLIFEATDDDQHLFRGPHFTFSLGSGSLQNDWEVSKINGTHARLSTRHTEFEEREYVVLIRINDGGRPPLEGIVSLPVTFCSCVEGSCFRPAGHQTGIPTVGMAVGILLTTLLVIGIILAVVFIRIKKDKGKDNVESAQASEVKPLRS
Description: Snap frozen cell pellets were lysed in modified RIPA buffer (50 mM Tris-HCl, pH 7.4, 1% NP-40, 0.25% Na-deoxycholate, 150 mM NaCl, 1 mM EDTA) containing protease inhibitors (Roche) and cleared by spinning down at 18,000 g for 15 min at 4 C. The 4×LDS sample loading buffer (Invitrogen Inc.) was added to the cleared lysate to a final concentration of 1×; sample was heated for 10 min at 70° C. and kept at −80° C. afterwards. Before loading on a gel samples were re-heated.
Membrane was incubated with animal-free blocker (Vector) and probed with anti-Cadherin-17 antibody in animal-free blocker at 1:500 dilution, at 4 C, for 14-18 h, rotating. The secondary was anti-mouse DyLight® 488 conjugate (Pierce).
A clear signal was detected at a size corresponding to the Cadherin-17 protein (92 kDa) in 11 of the 14 chosen colorectal cell lines for all 5 Cadherin-17 antibodies (PTA001_A3, PTA001_A4, PTA001_A6, PTA001_A8 and PTA001_A9). […] Cell lines were carefully selected for different genetic backgrounds relevant to the initiation and progression of CRC (RER+=replication error positive tumor phenotype; RER−=replication error deficient tumor phenotype; p53 wild type or mutant and APC wild type or mutant genotype).

[2] = biological target: T2, cell-surface human Cadherin-17 (human, UniProt Q12864 23-832); assay: flow cytometry (FACS) on LoVo cells, antibody titration 0.005-10 ug/ml
T2 construct: whole, on cells; Endogenous protein on cells; also called Liver-intestine cadherin; LI-cadherin
T2 sequence (looked up): T1 sequence (looked up)

B1: PTA001_A4 monoclonal antibody (Fab, V domains shown)
VH: EVQLQQSVAELVKPGASVKMSCKVSGYTLTDHTIHWMKQRPEQGLEWIGYIYPRDGITGYNEKFKGKATLTADTSSSTAYMQLNSLTSEDSAVYFCARWGYSYRNYAYYYDYWGQGTTLTVSS
VL: DIVMSQSPSSLAVSVGEKVTMSCKSSQSLLHSSNQKNYLAWYQQKPGQSPKVLIYWASTRESGVPDRFTGSGSGTDFTLTITSVKSEDLAVYYCQQYYSYPWTFGGGTRLEIKR
binding result [1]: binds | binding result [2]: binds
